# T1: SFVmac PR-RT WT (simian foamy virus from macaque (SFVmac), UniProt P23074 1-751)
# T1 sequence: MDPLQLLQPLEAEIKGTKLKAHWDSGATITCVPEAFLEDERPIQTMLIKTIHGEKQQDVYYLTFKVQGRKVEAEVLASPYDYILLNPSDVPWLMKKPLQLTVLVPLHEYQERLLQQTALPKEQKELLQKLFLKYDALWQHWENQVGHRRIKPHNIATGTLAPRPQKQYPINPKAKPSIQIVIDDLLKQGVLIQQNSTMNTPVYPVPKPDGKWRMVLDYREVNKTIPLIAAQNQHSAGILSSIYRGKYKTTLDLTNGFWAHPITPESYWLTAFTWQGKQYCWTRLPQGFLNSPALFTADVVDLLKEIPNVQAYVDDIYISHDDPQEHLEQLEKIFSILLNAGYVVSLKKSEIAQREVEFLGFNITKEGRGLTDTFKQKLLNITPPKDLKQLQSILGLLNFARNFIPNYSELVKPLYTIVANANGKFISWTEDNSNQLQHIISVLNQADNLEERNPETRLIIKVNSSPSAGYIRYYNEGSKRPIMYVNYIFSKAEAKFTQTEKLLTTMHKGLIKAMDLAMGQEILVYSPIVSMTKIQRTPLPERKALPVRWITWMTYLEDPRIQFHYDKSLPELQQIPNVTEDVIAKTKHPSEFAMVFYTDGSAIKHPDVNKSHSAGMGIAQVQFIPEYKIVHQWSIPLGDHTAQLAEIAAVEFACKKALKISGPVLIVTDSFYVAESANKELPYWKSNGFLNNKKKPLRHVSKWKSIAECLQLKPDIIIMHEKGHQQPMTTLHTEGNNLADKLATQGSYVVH
# B1: 24/40-mer DNA/RNA P/T (DNA:RNA)
# DNA: ATCACCAGGAGAGGGGAAAGCGGA
# RNA: CUAAUUCCGCUUUCCCCUCUCCUGGUGAUCCUUUCCAUCC
# B2: 24/40-mer DNA/DNA P/T (dsDNA)
# DNA 1: ATCACCAGGAGAGGGGAAAGCGGA
# DNA 2: CTAATTCCGCTTTCCCCTCTCCTGGTGATCCTTTCCATCC
# Molecular target: T1, SFVmac PR-RT WT
# Assay: fluorescence anisotropy
row,Binder,Kd
1,B1,32.4 ± 4.2 nM
2,B2,36.4 ± 2.4 nM

# From PMC2241919
